These results are taken from article PMC4511216 (Genes & Development, 2015).

Sequences and labels used below:
B2: human Mob1, full length, unphosphorylated, untagged (natural protein)
chain: MSFLFSSRSSKTFKPKKNIPEGSHQYELLKHAEATLGSGNLRQAVMLPEGEDLNEWIAVNTVDFFNQINMLYGTITEFCTEASCPVMSAGPRYEYHWADGTNIKKPIKCSAPKYIDYLMTWVQDQLDDETLFPSKIGVPFPKNFMSVAKTILKRLFRVYAHIYHQHFDSVMQLQEEAHLNTSFKHFIFFVQEFNLIDRRELAPLQELIEKLGSKDR

Test [1] deals with PPXY-containing peptide of Lats1.
Test [2] concerns the target T1, human pMob1, full length, untagged (phosphorylated by Mst2) (human, UniProt Q9H8S9 1-216, phosphothreonine at 12 and 35).
T1 sequence: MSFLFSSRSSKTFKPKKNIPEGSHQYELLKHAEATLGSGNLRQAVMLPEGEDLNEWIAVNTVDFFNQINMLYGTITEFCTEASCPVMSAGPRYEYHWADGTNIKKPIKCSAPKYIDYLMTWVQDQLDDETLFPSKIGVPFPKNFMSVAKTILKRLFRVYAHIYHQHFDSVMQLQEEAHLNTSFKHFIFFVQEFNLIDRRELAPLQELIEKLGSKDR
The experiment in a line: crystal structure.

In test [3] the target is T2, human Mst2 wild type, autophosphorylated (pMst2) (human, UniProt Q13188 9-491).
T2 sequence: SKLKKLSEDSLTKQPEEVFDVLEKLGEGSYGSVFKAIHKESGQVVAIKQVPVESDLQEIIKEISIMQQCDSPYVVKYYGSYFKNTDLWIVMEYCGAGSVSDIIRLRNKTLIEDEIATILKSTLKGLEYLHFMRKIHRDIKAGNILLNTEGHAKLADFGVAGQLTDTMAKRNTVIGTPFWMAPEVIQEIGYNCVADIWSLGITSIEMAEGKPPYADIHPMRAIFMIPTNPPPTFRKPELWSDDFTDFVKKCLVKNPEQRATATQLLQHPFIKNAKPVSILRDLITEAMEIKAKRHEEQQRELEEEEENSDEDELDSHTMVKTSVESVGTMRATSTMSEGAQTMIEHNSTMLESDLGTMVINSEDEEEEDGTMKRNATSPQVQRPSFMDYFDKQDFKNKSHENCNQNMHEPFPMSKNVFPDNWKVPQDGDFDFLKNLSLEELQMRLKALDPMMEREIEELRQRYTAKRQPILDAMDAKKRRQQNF
Nature of the test: NMR titration.

In test [4] the target is T3, human Lats1C ΔHM (residue 602–1060) (human, UniProt O95835 602-1060).
T3 sequence: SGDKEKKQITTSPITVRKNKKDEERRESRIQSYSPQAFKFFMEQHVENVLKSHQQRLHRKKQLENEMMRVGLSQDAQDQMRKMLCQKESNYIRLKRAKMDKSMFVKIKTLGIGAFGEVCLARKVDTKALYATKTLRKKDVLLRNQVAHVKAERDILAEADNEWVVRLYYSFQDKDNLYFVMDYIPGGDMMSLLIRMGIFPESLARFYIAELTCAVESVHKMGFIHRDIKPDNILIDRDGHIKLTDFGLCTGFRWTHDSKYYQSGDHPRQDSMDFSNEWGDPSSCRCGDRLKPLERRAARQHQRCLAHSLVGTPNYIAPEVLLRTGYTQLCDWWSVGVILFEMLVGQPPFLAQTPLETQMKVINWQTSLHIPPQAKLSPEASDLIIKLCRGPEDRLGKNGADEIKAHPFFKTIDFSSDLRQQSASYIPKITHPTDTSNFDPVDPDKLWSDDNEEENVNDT
Nature of the test: SEC. (In gel filtration, larger molecules generally elute earlier.)

In test [5] the target is B2. Nature of the test: pull-down.
Test [6] has as its target B2. The experiment in a line: ITC. For orientation: ITC needs no label: the signal is the heat of the interaction.
Test [7] concerns the target human Mob1 L207K (human, UniProt Q9H8S9 1-216, L207K). The experiment in a line: pull-down.
The target in test [8] is human Mob1 F167A (human, UniProt Q9H8S9 1-216, F167A). Nature of the test: pull-down.
Test [9] deals with human Mob1 H164A (human, UniProt Q9H8S9 1-216, H164A). The experiment in a line: pull-down.
Test [10] concerns the target B2. Nature of the test: ITC. This is another data set of the same source.

Read-outs that look alike come from different tables or passages of the source. Square brackets hold non-standard residues; d marks the D form. Ends that are not written are not given here. pT = C[C@@H](OP(=O)(O)O)[C@H](N)C(=O)O

By Kd is commonly meant a measure of binding affinity in units of concentration. Read a high Kd as weaker binding. “human Sav WW domains (domain or fragment)” returned a Kd in [1] of 156 µM.

B1: human Lats1 602–704 (Lats1 MBD) (domain or fragment)
chain: SGDKEKKQITTSPITVRKNKKDEERRESRIQSYSPQAFKFFMEQHVENVLKSHQQRLHRKKQLENEMMRVGLSQDAQDQMRKMLCQKESNYIRLKRAKMDKSM
Take B1: the binding result in [2] is “binds”.

Regarding B2, the binding result in [3] and in test [4] was “binds” in each case.

DEEEEDG[pT]MKRNATSPQVQRPSFMDYFDKQD (domain or fragment, human, UniProt Q13188 371-401, looked up, not fully specified (N-terminus)) [GST-pMst2 MBM (residues 371–401), phosphorylated]: in test [5], the binding result was “binds”.

B3: human Mst2 ΔL/MBM (contains only the MBM but lacks all other linker residues) (enzyme)
chain: SKLKKLSEDSLTKQPEEVFDVLEKLGEGSYGSVFKAIHKESGQVVAIKQVPVESDLQEIIKEISIMQQCDSPYVVKYYGSYFKNTDLWIVMEYCGAGSVSDIIRLRNKTLIEDEIATILKSTLKGLEYLHFMRKIHRDIKAGNILLNTEGHAKLADFGVAGQLTDTMAKRNTVIGTPFWMAPEVIQEIGYNCVADIWSLGITSIEMAEGKPPYADIHPMRAIFMIPTNPPPTFRKPELWSDDFTDFVKKCLVKNPEQRATATQLLQHPFIKNAKPVSILRDLITEAMEIKAKRHEEQQRELEEEEDEEEEDGTMKRNATSPQVQRPSFMDYFDKQNWKVPQDGDFDFLKNLSLEELQMRLKALDPMMEREIEELRQRYTAKRQPILDAMDAKKRRQQNF
The molecule B3 gave a Kd in test [6] of 230 nM.

On to DGTMKRNATSPQVQRPSFMDYFDKQ (domain or fragment, human, UniProt Q13188 376-400, looked up, not fully specified (N-terminus); also: phosphorylated, sites not given here) [GST-Mst2 linker fragment 376–400, phosphorylated with Mst2 kinase domain], for which, in test [5], the binding result was “binds”.

B4: GST-Mst2 371–427, phosphorylated with Mst2 kinase domain (domain or fragment, human, UniProt Q13188 371-427, looked up)
chain: DEEEEDG[pT]MKRNATSPQVQRPSFMDYFDKQDFKNKSHENCNQNMHEPFPMSKNVFPD
modifications: also: GST fusion
In the case of B4, the binding result in [7], in test [8] and in [9] was “binds” in each case.

On to DEEEEDG[pT]MKRNATSPQVQRPSFMDYFDKQ [synthetic phospho-T378 Mst2 MBM peptide], for which binding in test [10] was put at a Kd of 119 nM.
